Experiments:
[1] = molecular target: VEGF (as used in the VEGFR competition ELISA); experiment: competition ELISA, VEGF binding to hVEGFR1; ratio to reference Luc
[2] = molecular target: T1, recombinant human VEGF165 (PeproTech EC Ltd.) (human, UniProt P15692-4 27-191); experiment: SPR, BIAcore T100, hVEGF165 amine-coupled on CM4 chip, scFv as analyte
T1 construct: Amine-coupled to a CM4 chip; also called hVEGF165
Experimental: The Biacore-binding ability of scFvs was tested and the binding affinity was measured using the exemplary surface plasmon resonance method with BIAcore™-T100. […] For the surface plasmon resonance experiment, carboxymethylated dextran biosensor chips (CM4, GE Healthcare) were activated with N-ethyl-N′-(3-dimethylaminopropyl) carbodiimide hydrochloride and N-hydroxysuccinimide according to the supplier's instructions. […] The 4th flow cell of each chip was treated similarly except no proteins were immobilized prior to blocking, and the flow cell was used as in-line reference. […] The apparent dissociation rate constant (kd), the apparent association rate constant (kₐ) and the apparent dissociation equilibrium constant (KD) were calculated using one-to-one Langmuir binding model with BIAcore T100 evaluation Software version 1.1.

Chain of VEGF (as used in the VEGFR competition ELISA) (P15692 whole entry): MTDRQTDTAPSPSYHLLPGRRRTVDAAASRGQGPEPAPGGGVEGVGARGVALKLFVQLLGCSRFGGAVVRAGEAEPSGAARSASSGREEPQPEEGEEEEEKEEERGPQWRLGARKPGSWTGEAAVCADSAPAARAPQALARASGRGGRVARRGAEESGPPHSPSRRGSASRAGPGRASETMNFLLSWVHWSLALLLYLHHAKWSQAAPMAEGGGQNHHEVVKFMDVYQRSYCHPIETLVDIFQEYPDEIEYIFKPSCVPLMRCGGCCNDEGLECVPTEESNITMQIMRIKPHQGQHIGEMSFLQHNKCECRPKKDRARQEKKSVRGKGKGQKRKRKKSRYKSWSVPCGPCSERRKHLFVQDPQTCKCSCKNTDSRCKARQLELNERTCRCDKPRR
T1 sequence (P15692 other isoform, or with tags, fused parts or gaps limits assumed, form in doubt): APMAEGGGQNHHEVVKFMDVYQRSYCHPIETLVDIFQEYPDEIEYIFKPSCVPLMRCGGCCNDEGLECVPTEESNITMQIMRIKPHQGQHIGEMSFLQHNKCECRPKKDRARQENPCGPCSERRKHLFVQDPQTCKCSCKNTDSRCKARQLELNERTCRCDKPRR

Binder | Rel. activity hVEGR1 comp. ELISA (EC50Luc [nM]/EC50test [nM]) [1] | Kd [2] | koff [2] | kon [2]
509-maxII (scFv) EIVMTQSPSTLSASVGDRVIITCQASQNIRIWLSWYQQKPGKAPKLLIYKASTLESGVPSRFSGSGSGTEFTLTISSLQPDDFATYYCQNNAHYSTNGGTFGQGTKLTVLGGGGGSGGGGSGGGGSGGGGSEVQLVESGGGLVQPGGSLRLSCTASGFSLSSYYMSWVRQAPGKGLEWVGILDYVGDTDYASWAKGRFTISKDASKNTVYLQMNSLRAEDTAVYYCARTDDSRGWGLNIWGQGTLVTVSS | 0.09 ratio | 3.37 nM | 0.00282 s⁻¹ | 838000 M⁻¹ s⁻¹
511-min (scFv, NH2-VL-linker-VH-COOH; Min graft on FW1.4; also called 801) scFv: EIVMTQSPSTLSASVGDRVIITCQASQSINIWLSWYQQKPGKAPKLLIYRASTLASGVPSRFSGSGSGAEFTLTISSLQPDDFATYYCQANYAYSAGYGAAFGQGTKLTVLGGGGGSGGGGSGGGGSGGGGSEVQLVESGGGLVQPGGSLRLSCAASGFSLNTYYMNWVRQAPGKGLEWVSIIAPDDTTYYASWAKSRFTISRDNSKNTLYLQMNSLRAEDTAVYYCAKSGDTTAWGADIWGQGTLVTVSS | 0.7 ratio | 2.53 nM | 0.00128 s⁻¹ | 505000 M⁻¹ s⁻¹
534-min C-His (scFv, not shown: small tags and cut ends, Min graft with C-His in its name; also called 807) scFv: EIVMTQSPSTLSASVGDRVIITCQASQSINWLSWYQQKPGKAPKLLIYKESTLASGVPSRFSGSGSGAEFTLTISSLQPDDFATYYCQNNYDSGNNGFPFGQGTKLTVLGGGGGSGGGGSGGGGSGGGGSEVQLVESGGGLVQPGGSLRLSCAASGFSLSYYYMSWVRQAPGKGLEWVSIIGPGDYTDYASWAKGRFTISRDNSKNTLYLQMNSLRAEDTAVYYCAKGDDNSGWGEDIWGQGTLVTVSS | – | 34.1 nM | 0.00921 s⁻¹ | 271000 M⁻¹ s⁻¹
567-min (scFv) EIVMTQSPSTLSASVGDRVIITCQADQSIYIWLSWYQQKPGKAPKLLIYKASTLESGVPSRFSGSGSGAEFTLTISSLQPDDFATYYCQNNAHYSTNGGTFGQGTKLTVLGGGGGSGGGGSGGGGSGGGGSEVQLVESGGGLVQPGGSLRLSCAASGFSLSDYYMCWVRQAPGKGLEWVSCLDYFGSTDDASWAKGRFTISRDNSKNTLYLQMNSLRAEDTAVYYCAKTDDSRGWGLNIWGQGTLVTVSS | 57 ratio | – | – | –
578-min (scFv, NH2-VL-linker-VH-COOH; Min graft on FW1.4; also called 820) scFv: EIVMTQSPSTLSASVGDRVIITCQASEIIHSWLAWYQQKPGKAPKLLIYLASTLASGVPSRFSGSGSGAEFTLTISSLQPDDFATYYCQNVYLASTNGANFGQGTKLTVLGGGGGSGGGGSGGGGSGGGGSEVQLVESGGGLVQPGGSLRLSCAASGFSLTDYYYMTWVRQAPGKGLEWVSFIDPDDDPYYATWAKGRFTISRDNSKNTLYLQMNSLRAEDTAVYYCAKGDHNSGWGLDIWGQGTLVTVSS | 4.8 ratio | – | – | –
509-min (scFv, NH2-VL-linker-VH-COOH; Min graft on FW1.4; also called 854) scFv: EIVMTQSPSTLSASVGDRVIITCQASQNIRIWLSWYQQKPGKAPKLLIYKASTLESGVPSRFSGSGSGAEFTLTISSLQPDDFATYYCQNNAHYSTNGGTFGQGTKLTVLGGGGGSGGGGSGGGGSGGGGSEVQLVESGGGLVQPGGSLRLSCAASGFSLSSYYMCWVRQAPGKGLEWVSCLDYVGDTDYASWAKGRFTISRDNSKNTLYLQMNSLRAEDTAVYYCAKTDDSRGWGLNIWGQGTLVTVSS | 2.9 ratio | – | – | –

Source: patent publication US20180127493A1 (ESBATECH AN ALCON BIOMEDICAL RESEARCH UNIT, published 2018)
